Experimental data taken from PMC6596994 (Nature, 2019).
Substitutions are numbered along the chain they refer to. Numbers in names are those of the source. Where two headings read alike, the source gives them in different places.

T1: Mouse TBK1 (1–657) (mouse, UniProt Q9WUN2 1-657)
T1 sequence: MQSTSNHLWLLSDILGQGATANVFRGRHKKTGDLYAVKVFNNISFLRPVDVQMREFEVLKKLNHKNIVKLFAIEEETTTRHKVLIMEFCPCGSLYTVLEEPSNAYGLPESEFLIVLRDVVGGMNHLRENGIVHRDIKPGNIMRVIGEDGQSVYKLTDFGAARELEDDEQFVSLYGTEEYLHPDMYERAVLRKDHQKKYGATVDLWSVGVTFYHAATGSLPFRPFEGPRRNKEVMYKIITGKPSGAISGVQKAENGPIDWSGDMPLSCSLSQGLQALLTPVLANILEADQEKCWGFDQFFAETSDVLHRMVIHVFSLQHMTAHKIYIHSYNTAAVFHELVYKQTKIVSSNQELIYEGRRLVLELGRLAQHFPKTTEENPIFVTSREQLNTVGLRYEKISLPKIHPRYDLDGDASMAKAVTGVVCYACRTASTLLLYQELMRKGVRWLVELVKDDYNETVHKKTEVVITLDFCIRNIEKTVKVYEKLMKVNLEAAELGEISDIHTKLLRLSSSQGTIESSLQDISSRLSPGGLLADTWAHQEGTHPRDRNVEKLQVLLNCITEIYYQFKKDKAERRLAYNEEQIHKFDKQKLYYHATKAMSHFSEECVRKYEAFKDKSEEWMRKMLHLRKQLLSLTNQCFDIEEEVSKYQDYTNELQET

T2: Human TBK1 (1–657, S172A) (human, UniProt Q9UHD2 1-657, S172A)
T2 sequence: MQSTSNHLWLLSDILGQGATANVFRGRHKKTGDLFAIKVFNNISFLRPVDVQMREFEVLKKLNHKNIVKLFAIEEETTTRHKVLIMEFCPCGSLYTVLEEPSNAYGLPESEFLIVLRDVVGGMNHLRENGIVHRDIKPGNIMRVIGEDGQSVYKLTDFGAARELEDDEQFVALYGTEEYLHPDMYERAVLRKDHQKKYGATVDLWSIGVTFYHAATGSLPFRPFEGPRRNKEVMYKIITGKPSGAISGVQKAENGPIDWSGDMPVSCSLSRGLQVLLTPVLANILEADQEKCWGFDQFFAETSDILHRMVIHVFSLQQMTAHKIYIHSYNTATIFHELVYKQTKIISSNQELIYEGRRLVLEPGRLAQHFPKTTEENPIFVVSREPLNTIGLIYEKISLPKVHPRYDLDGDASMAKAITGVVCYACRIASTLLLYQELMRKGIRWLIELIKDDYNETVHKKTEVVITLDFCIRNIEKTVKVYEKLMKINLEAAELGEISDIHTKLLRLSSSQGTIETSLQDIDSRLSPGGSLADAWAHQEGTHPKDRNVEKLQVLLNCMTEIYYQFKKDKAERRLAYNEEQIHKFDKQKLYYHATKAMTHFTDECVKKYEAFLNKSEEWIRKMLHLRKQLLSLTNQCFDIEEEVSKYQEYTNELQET

T3: Mouse TBK1 (1–657, S172A) (mouse, UniProt Q9WUN2 1-657, S172A)
T3 sequence: T1 sequence with S172A

T4: Human TBK1 (residue 1–657, S172E, D135N) (human, UniProt Q9UHD2 1-657, S172E | D135N)
T4 sequence: T2 sequence with D135N, A172E

B1: p-hSTING (155–379) (domain or fragment)
chain: VAHGLAWSYYIGYLRLILPELQARIRTYNQHYNNLLRGAVSQRLYILLPLDCGVPDNLSMADPNIRFLDKLPQQTGDHAGIKDRVYSNSIYELLENGQRAGTCVLEYATPLQTLFAMSQYSQAGFSREDRLEQAKLFCRTLEDILADAPESQNNCRLIAYQEPADDSSFSLSQEVLRHLRQEEKEEVTVGSLKTSAVPSTSTMSQEPELLISGMEKPLPLRTDFS
B2: human STING CTD (residues 155 to 379, T376E, F378M, S379W), crystallised (domain or fragment)
chain: B1 chain with T222E, F224M, S225W

Assays:
[1] = target: T1, Mouse TBK1 (1–657); test: SPR
[2] = target: T2, Human TBK1 (1–657, S172A); test: SPR
[3] = target: T3, Mouse TBK1 (1–657, S172A); test: SPR
[4] = target: T2, Human TBK1 (1–657, S172A); test: SPR; remark: listed apart in the source
[5] = target: T3, Mouse TBK1 (1–657, S172A); test: SPR; remark: listed apart in the source
[6] = target: T4, Human TBK1 (residue 1–657, S172E, D135N); test: crystal structure

| Binder | Kd [1] [µM] | Kd [2] [µM] | Kd [3] [µM] | Kd [4] [µM] | Kd [5] [µM] | binding result [6] |
| --- | --- | --- | --- | --- | --- | --- |
| B1 | 13.3 | 11 | 9.1 | 20 | 12.5 |  |
| B2 |  |  |  |  |  | binds |
